Test results reported in the DeepSol protein solubility set.

experiment: soluble on expression in E. coli; label from the status in PepcDB or PDB records

| Sequence | soluble on expression in E. coli |
| --- | --- |
| NLHGMEQIEFQVSAHRDLPLRPLNKVASGGELSRISLAIQVITSKAGTVPTLIFDEVDTGIGGRIAAIVGKLLQQLGKTRQVMSITHLPQVAARGDHHWRVSKTSETED | not soluble |
| MSLSKILIAGCGDLGLELARRLTAQGHEVTGLRRSAQPMPAGVQTLIADVTRPDTLASIVHLRPEILVYCVAASEYSDEHYRLSYVEGLRNTLSALEGAPLQHVFFVSSTGVYGQEVEEWLDEDTPPIAKDFSGKRMLEAEALLAAYSSTILRFSGIYGPGRLRMIRQAQTPEQWPARNAWTNRIHRDDGAAFIAYLIQQRSHAVPERLYIVTDNQPLPVHDLLRWLADRQGIAYPAGATPPVQGNKKLSNARLLASGYQLIYPDYVSGYGALLAAMREGHHHHHH | soluble |
| AHDNVVIFGDSMVADPLVSEVITGRLSSQPHCPHSPTSYAEIAAKRLGLESRNFSCAGAQVHIGGPFLKTSFIAQIDTAIAAGALDTHTRRVWITQGFNDAWSGHPAAQVVATMSEVIGRIRAHAPNARIQIVGYPQITHQGQLCLVR | not soluble |
| MVGPARPQIVLFGSSIVQMSFGHGGWGAILSEVYARKADIILRGYYGWNSSRALEVVDQVFPKDAAVQPSLVIVYFGGNDSMAPHSSGLGPHVPLTEYVDNMKKIALHLQSLSDFTRIIFLSSPPVDEAKVRQNQSPYLSEVIRTNDLCKTYSDACVELCQELGLEVVDLFSTFQKADDWKTVCFTDGIHLSAQGSKIVAGEILRVVKEAEWHPSLHWKSMPTEFADDSPYDLVSADGKQTVNSSEWTYFWEEQWD | soluble |
| MYNLLTKQEIQLLSLIEYLYDSKEKVPMQVLRRKYEFSHYNINNLLNQLTLLISRVNTHENVHIRIINNQQSIELVADENIPIELMKEAVVRGSLTYMLALDLLLKRYTSAKDFCEEHFINFSIFKQVSDRLNNHLARFNCYLNLKRREKICGNEKDFRSFFYSLFFISGTSLVPFLSKTNQAQLQNFIEIIKNRYPYFTYTDLRKLKLIMSIGLLRYQSGFTITNYPEVAAINLAFPYSEFQLLVNDCFIDEQKEPDTWQAEIHFYYDFFSTLTMYSLVQMETINFANLAIMGMDNSPHATWIFEKCTQLQLDLSAIEVVFLLVNLSNASERLIHFPVEEELSYEVANVSLYEKQYPNVSRTTNYFLKRLPFDKQHPLDALFKETIFLIIRSVLLNKQIPVKILLHSSINQIQENWLAKEINNYCDVPLKFVNHIQEVPDLVITDKNNPLFHASKTFYWHPVPYLDEYYNLKQVVRKIYFAKLRGENSLEGIGC | not soluble |
| MNNKKINFGCCNWTRDAMKWRQRFEAADVTWVSRTNNGPADLLAKHRLPDNCSFQYHYYVPPFIVSALHCNHS | soluble |
| AHHHHHHGSAGVRLVGVWKQFGSFTAVKDLTLEVRDGEFLVLLGPSGCGKTTTLRMIAGLEEPTKGQIYIGDKLVADPEKGVFVPPKDRDIAMVFQSYALYPHMTVYENIAFPLKLRKVPKQEIDKRVREVAEMLGLTELLNRKPRELSGGQRQRVALGRAIVRRPQVFLMDEPLSNLDAKLRVKMRAELKKLQKQLGVTTIYVTHDQVEAMTMGDRIAVMNQGVLQQVGTPEEVYEKPANTFVAGFIGSPPMNFLDATITEDGFLDFGEFRLKLLPDQFEVLQDYVGKEVIFGIRPEDIYDALFAQVKIPGENMARGVVDIIENLGGEKIVHISIGGLIVTAKFPGESRVKEGDEIDIVFDMKKIHIFNKKTGKAIL | soluble |
| MSTTDKQVAIVGVGPRGISILERIAAALNTVSRPKQGLTIHLIEDAQMGAGNVWRTDQTRTLCMNTLAGAVTLFTEPGSTVSAPVVEGPLQFDWIRLLRGDEDLSGIPTKAIELFRTYPPAASVAEDFKEELAATVIQSNPSRALYGAYLRWAFDVALQLLPQWVKVEQHHARAIGIREDGDRDVITLDNSEMISADSTVLAVGWQTPAPNAEELSIAAALEENPDLVWVKPGNPVEQDASLIPAGEQVLVRGLGMGFFDIMALTTIDRGGIFHEDPSTRSGLRYEASGEEPHFVISSGRGYPYLPKSDYKSLPPGAKLARLKAVIAAINAQNRGVASINYDAEVWPAVARDAYEAYYETLDRVSPESIRTGLDKIVEIIDEVDVDKLPKALAAHTDDVFDLHAWEFPLAGINESVEALTARIADGMARDIRHAVTAWDSPLKSALWSISAARKPSSILGAEGRLTFESRRNRFAAVMAIGQMVGSGPPLFRTRELLALVDAGLAHFAGARPRLSVSDGQWQISSPTTGDTPLRSKVLVDAWMHNP | not soluble |
| MSLRLFGTHIQAAIRPVIWLLLWQASSGFANQVRVEVEGDYDQLQENAEILLGEVQDRTADGLRRYASSAAAQVEEAVRALGYYNPTIRWQVNEQDEAPAELVLTIVPGEPVRVRSRQVDIQGPGADDPDLVQSLPERPREGDILNHGEYDGLRQAIQNRAGRLGYFDGEYETRKLKVDPDANAADILLTYRTGERYQLGEVTFLEGHGFDEQLLRQFVTTEPGEPFHADKVARLNRDLSNSGYFSGVDIDASPSQAEDRVIPVTIGLTPRPPRSVSAGVGFSTDVGPRFRGNWREHYINSMGHKRGADTELSELRQSVSGWYELPLDPPMTDSIRLGTGYQREHVEDVESERLTFGQQWNHQLDDGWMQVLSMRWEGERFRIGDGERGTSSLLLPGVSYSKLQADSPLDPSRGFRLQLDVTGAHRAVLSDADILHVNLLAKGLYTLADNHRFLARFNFGGVATNNFSDVPPSLRFFAGGDQSVRGYGYETLSPEDSDGVAVGGRYLIVGSAEYQYEFARNWRVAAFVDEGNAVNDVFDPLATGVGVGIRWVSPVGPLRLDVARGLNEELGGGWRIHFSMGPEEGHHHHHH | not soluble |
| MGSDKIHHHHHHMSPLFTNSEIISRVIKEHFNKNLDHYDGVKFSFMVLNKKNPSQMIIISSYPDEWVNLYKENKYQHIDPVVLASFNKISPFSWEKSLVINTRLQLAKIFDLSKKYDIINGYTFVLHDHGDNLAMLSIIVDNSYPDDVETFIEERKDIFQMLLIEAYEKIISLCKEMIGNKKQLNNKEIFSQRENEILYWASMGKTYLEVAIILGIKTSTVKFHIGNVVKKLGVLNAKHAIRLGVELQLIKPVQ | not soluble |
| ITERRQRQQRIEALHDTTRELMHVESREAAAELVVETARDLLGLPLSAVFLADESADALRPTAVTDQAQAIIDDHPTFSEGDSLVWEVFDSGEQRVFNDVSTHPNRYNPDTDVCSELLIPLGDHGVLIAASTDAAAFEDASVSLMRTLAANTEEALSRLDRQQELRTLTER | not soluble |
| MAITDILSAKDIESALSSCQAADSFNYKSFFSTVGLSSKTPDQIKKVFGILDQDKSGFIEEEELQLFLKNFSSSARVLTSAETKAFLAAGDTDGDGKIGVEEFQSLVKA | soluble |
| MQTKLSTWTPLNHQLSNAHVFEERRNLLGKWFEKWTDSQRKQVLQDFFSRCSAGQLKHLRQTLSSWVPEETLDFTTVLPRVISLYIFSYLDPRSLCRCAQVSWHWKNLAELDQLWMPKCLKLGWCITFTPTPFEQGVWKRQYIETVQELHISRPKVPVKEEFIVPDVKVIGSETEGSLPLTGHRDLLGLQGRSKNGNDLGKSAKGLPPWRDSDRHPTDTIRFNYLDNLHPGEHARKALLKTRQEDTIKAPSHSTYKLRKAKSLMFLSLDLSTAGKPSHNRPKWAARNLEALPADKDSIKRISQTSQWNAGIRPGPVRPPVPRLSKEGFRASQRSHRSPPTVTLFEGQP | soluble |
| MAVGLGPLPALHPVPGFELGISSAGIKRPGRKDVVVMRCAEGSSVAGVFTLNAFCAAPVILAKQRVQGTVRYLLTNTGNANAGTGEPGLVAARRTCEALAQLTGVDASAVLPYSTGVIGEPLPVEKIEGALQAALDDLSVDNWAAAATGIMTTDTLPKGASRQFTHDGVTITVTGISKGAGMIRPNMATMLGYIATDAKVSQSVLQDLIRDGANKSFNRLTIDGDTSTNDCCMLIATGQADLPEITEAKGLLFEALKKAVFDVCMEVAQAIVRDGEGATKFVTVEVNGGGNHQECLDVGYAVAHSPLIKTALFASDPNWGRILAAVGRAGVPDLDVSKIDVFLGGVCIASQGCRATTYTEEQGSAVMAEAEITIRIELGRGDCSETIWTTDLSHEYVKINAEYRTLEHHHHHH | not soluble |
| MGSDKIHHHHHHMTAEDTYKTIVEPSEGIYTEKRSKFIAIALPVRTLDEIKAHLETYQKKYYDARHVCYAYMLGAARKDFRANDNGEPSGTAGKPILGQINSNELTDILIIVVRYFGGIKLGTSGLIVAYKAAAAEAISAATIIEKTVDEEVTVMFEYPFMNDIMRIVKEEEPEILSQSYDMDCSMTLCIRRSMMPKLRARLEKVETARILDEE | not soluble |
